This passage reports abundance fitness results from the Human Domainome abundance scans (Beltran et al. 2025).

± gives the uncertainty stated by the source.

To fix the notation:
B1: Serine/threonine-protein kinase A-Raf, residues 21 to 89; numbered along this chain, P10398 (parent)
chain: VKVYLPNKQRTVVTVRDGMSVYDSLDKALKVRGLNQDCCVVYRLIKGRKTVTAWDTAIAPLDGEELIVE

In this data set the parent is B1. The experiment in a line: abundance fitness (aPCA) (normalised: wild type 0, dead -1); higher = more abundant; growth selection in yeast, the domain comes from the species named. The conditions noted are these: Homo sapiens.
As to VKVYLPNKQRTVVTVRDGMSVYDSLDKALKVRGWNQDCCVVYRLIKGRKTVTAWDTAIAPLDGEELIVE [L34W], the abundance fitness was -0.27 ± 0.055.

For VKVYLPNKQRTVVTVRDGMSVYDSLDKALKVRGGNQDCCVVYRLIKGRKTVTAWDTAIAPLDGEELIVE [L34G], the abundance fitness was -1.1 ± 0.15.

With VKVYLPNKQRTVVTVDDGMSVYDSLDKALKVRGLNQDCCVVYRLIKGRKTVTAWDTAIAPLDGEELIVE [R16D], the abundance fitness is -0.106 ± 0.097.

In the case of VKVYLPNKQRTVVTVRDGMSVYDSCDKALKVRGLNQDCCVVYRLIKGRKTVTAWDTAIAPLDGEELIVE [L25C], the abundance fitness was -0.427 ± 0.18.

VKVYLPNSQRTVVTVRDGMSVYDSLDKALKVRGLNQDCCVVYRLIKGRKTVTAWDTAIAPLDGEELIVE [K8S]: the abundance fitness was -0.111 ± 0.04.

On to VKVYLPNKQRTVVTVRDGMSVYDSLDKALKVRGLNQDCCVVYRLIKGRKTVTAWDDAIAPLDGEELIVE [T56D], for which the abundance fitness was -0.069 ± 0.069.

Regarding VKVYLPNKQRTVVTVRDGMSVYDSLDKALKVRGLNQDCCVVYRLIKGRKTVTAWDTAIAPLDGGELIVE [E64G], the abundance fitness was -0.25 ± 0.088.

Turning to VKVYLPNKQRTVVTVRDGMSVYDSLDKALKVRGLNQDCCVVYRLIKGRKTVTAWDTAIAPLDGVELIVE [E64V], the abundance fitness was -0.259 ± 0.12.

Turning to VKVYLPNKQRTVVTVRDGMSVYDSLDKALKVRGLNQDCCVVYRLIKGRKTVAAWDTAIAPLDGEELIVE [T52A], the abundance fitness was -0.174 ± 0.062.

As to VKVYLPNKQRTVVTVRDGMSVYDSLDKALKVRGLNQDCCVVYRLIKMRKTVTAWDTAIAPLDGEELIVE [G47M], the abundance fitness was -1.06 ± 0.2.

For the variant VGVYLPNKQRTVVTVRDGMSVYDSLDKALKVRGLNQDCCVVYRLIKGRKTVTAWDTAIAPLDGEELIVE [K2G], the abundance fitness is -0.37 ± 0.079.

As for VKVYLPNKQRTVVTVRDGMSVYDSLDKALKVRGLNQDCCVVYRLIKGRKTHTAWDTAIAPLDGEELIVE [V51H], the abundance fitness was -0.156 ± 0.22.

Regarding VKVYLPNKQRTCVTVRDGMSVYDSLDKALKVRGLNQDCCVVYRLIKGRKTVTAWDTAIAPLDGEELIVE [V12C], the abundance fitness was -0.304 ± 0.099.

For VKVYLPNKQRTVVTVRDGMSVYDSLDKALKVRGLNQDCCVVYRLIKGRKTVTAWDTAIAPLDGEMLIVE [E65M], the abundance fitness was -0.34 ± 0.13.

Turning to VKVYLPNKQRTVVTVRDGMSVYDHLDKALKVRGLNQDCCVVYRLIKGRKTVTAWDTAIAPLDGEELIVE [S24H], the abundance fitness was -0.949 ± 0.3.

For the variant VKVYLPNKQRTVVTVRDGMSVYDILDKALKVRGLNQDCCVVYRLIKGRKTVTAWDTAIAPLDGEELIVE [S24I], the abundance fitness was found to be 0.027 ± 0.12.

Consider VKVYLPNKQRTVVTVRDGMSVYDDLDKALKVRGLNQDCCVVYRLIKGRKTVTAWDTAIAPLDGEELIVE [S24D], for which the abundance fitness was -0.887 ± 0.076.

Regarding VKVYLPNKQRTVVTVRDGMSVYDSLDKALKVRGLNQDCCVVYRLITGRKTVTAWDTAIAPLDGEELIVE [K46T], the abundance fitness was -0.383 ± 0.069.

As to VKVYLPNKQRTVVTVRDGMSVYDSLDKALKFRGLNQDCCVVYRLIKGRKTVTAWDTAIAPLDGEELIVE [V31F], the abundance fitness was -0.187 ± 0.12.

On to VKVYLPNKQRTVVTVRDGMSVYDSLDKALKWRGLNQDCCVVYRLIKGRKTVTAWDTAIAPLDGEELIVE [V31W], for which the abundance fitness was -0.305 ± 0.072.

VKVYLPNKQRTVVTVRDGMSVYDSLDKALKVRGLNQDCCVVYRLIKGRKAVTAWDTAIAPLDGEELIVE [T50A]: the abundance fitness was -0.227 ± 0.31.

Take VKVYLPNKQRTVVTVRDGMSVYDSLDKALKVIGLNQDCCVVYRLIKGRKTVTAWDTAIAPLDGEELIVE [R32I]: the abundance fitness amounted to 0.188 ± 0.13.

VKVYLPDKQRTVVTVRDGMSVYDSLDKALKVRGLNQDCCVVYRLIKGRKTVTAWDTAIAPLDGEELIVE [N7D]: the abundance fitness was 0.039 ± 0.054.

Turning to VKVYLPLKQRTVVTVRDGMSVYDSLDKALKVRGLNQDCCVVYRLIKGRKTVTAWDTAIAPLDGEELIVE [N7L], the abundance fitness is -0.735 ± 0.05.

In the case of VKVYLPNKQRTVVTVRDGMSVYDSLDKALKVRGLNQDCCVVYRLIKGRKTVTAWDTAIAPMDGEELIVE [L61M], the abundance fitness is 0.017 ± 0.087.

On to VKVYMPNKQRTVVTVRDGMSVYDSLDKALKVRGLNQDCCVVYRLIKGRKTVTAWDTAIAPLDGEELIVE [L5M], for which the abundance fitness is -0.064 ± 0.058.

Take VKVYLPNKQRTVVTVRLGMSVYDSLDKALKVRGLNQDCCVVYRLIKGRKTVTAWDTAIAPLDGEELIVE [D17L]: the abundance fitness is -0.319 ± 0.047.

Consider VKVYLPNKQRTVVTVRVGMSVYDSLDKALKVRGLNQDCCVVYRLIKGRKTVTAWDTAIAPLDGEELIVE [D17V], for which the abundance fitness was -0.186 ± 0.065.

For the variant VKVYLPNKQRTVVTVRMGMSVYDSLDKALKVRGLNQDCCVVYRLIKGRKTVTAWDTAIAPLDGEELIVE [D17M], the abundance fitness was -0.144 ± 0.075.

Turning to VKVYLPNKQRTVVTVRDGMSVYDSLDKALKVRGLNQDCCVVYRLIKGRKTVTAWDTAIARLDGEELIVE [P60R], the abundance fitness was -0.067 ± 0.048.

Take VKVYLPNKQRTVVTVRDGMSVYDSLDKALKVRGLNQDPCVVYRLIKGRKTVTAWDTAIAPLDGEELIVE [C38P]: the abundance fitness was -0.677 ± 0.14.

Consider VKVYLPNKQRTVVTVRDGMSVYDSLDKALKVRGLNQDWCVVYRLIKGRKTVTAWDTAIAPLDGEELIVE [C38W], for which the abundance fitness is -0.179 ± 0.059.

For the variant VKVYLPNKQRTVVTVRDGMSVYDSLDKALKVRGLNQDCCVVYRLIKGRKTVTAWDTAIAPLDGEELIVP [E69P], the abundance fitness was -0.693 ± 0.17.

For the variant VKVYLPNKQRTVVTVRDGMSVYDSLDKALKVRGLNQDCCVVYRLIKGRKTVTAWNTAIAPLDGEELIVE [D55N], the abundance fitness is -0.098 ± 0.06.

For the variant VKVYLPNKQRTVVTVRDGMSVYDSLDKALKVRGLNQDCCVVYRLIKGRKTVTAWHTAIAPLDGEELIVE [D55H], the abundance fitness is -0.234 ± 0.087.

For the variant VKVYLPNKQRTVVTVRDGMSVYDSLDKALKVRGLNQDCCVVYRLIKGVKTVTAWDTAIAPLDGEELIVE [R48V], the abundance fitness amounted to 0.05 ± 0.07.

Turning to VKVYLPNKQRTVVTVRDGMSVYDSLDKALKVRGLNQDCCVVYRLIKGPKTVTAWDTAIAPLDGEELIVE [R48P], the abundance fitness was -0.474 ± 0.16.

Take VKVYLPNKQRTVVTVRDGMSVYDSLDKAVKVRGLNQDCCVVYRLIKGRKTVTAWDTAIAPLDGEELIVE [L29V]: the abundance fitness is -0.806 ± 0.095.

As to VKVYLPNKQRTVVTVRDGMSVYDSLDKALKVRGLNQDCCVVYRLIKGRKTVTGWDTAIAPLDGEELIVE [A53G], the abundance fitness was -0.033 ± 0.057.
